± gives the uncertainty stated by the source.
Experiment: amyloid nucleation score (Sup35N fusion, yeast selection) (log enrichment); library NNK3; higher = more nucleation; inactive = no reads after selection
Procedure, shortened: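 The nucleation score is the DiMSum log enrichment of output over input reads, centred on the mode score of non-aggregating sequences. Only sequences with 100 or more input reads were scored, using Illumina sequencing of input and output plasmid inserts. Psi-negative yeast expressing Sup35N fused to peptides of 20 random codons were induced 24 hours with 100 μM copper sulfate and grown 7 days at 30°C on medium lacking adenine and uracil.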
For NMETYLFANVMLFGKPGLLS, the amyloid nucleation score was 1.01 ± 0.12. In the case of CILKHSGR, the amyloid nucleation score is reported as “inactive”. With CSNGFLFTVRVDTGFPTRI the amyloid nucleation score was “inactive”. For RRWSLRWNHLM, the amyloid nucleation score was “inactive”. In the case of VCIRTFLSLVSDCNACWSQL, the amyloid nucleation score is reported as “inactive”. With FWCIYS the amyloid nucleation score was “inactive”. With YSPDMRGMFIGGPDSVPLEG the amyloid nucleation score was “inactive”. For NTCKRYGEVI, the amyloid nucleation score was 2.2 ± 0.058. For LNAEIL, the amyloid nucleation score was “inactive”. For YISLDVTSIVGFVENIKQCV, the amyloid nucleation score was 1.65 ± 0.068. In the case of LSLAVKVIVKG, the amyloid nucleation score is reported as “inactive”. With SESQYRRWYTLAFVYMRHLN the amyloid nucleation score was “inactive”. With NMVDCGISLV the amyloid nucleation score was “inactive”. In the case of MTILYYDS, the amyloid nucleation score is reported as “inactive”. With IIEDLLLHWLGVWVFSKKFA the amyloid nucleation score was “inactive”. In the case of FYPTNGSGSRVLMHGNSMLC, the amyloid nucleation score is reported as “inactive”. For PTITMANKDRFLRRCSPNGG, the amyloid nucleation score was “inactive”. In the case of YVNFWKLVIREINFKKNGEP, the amyloid nucleation score is reported as “inactive”. In the case of LMDDTVQMYR, the amyloid nucleation score is reported as “inactive”. For IINATVCHCM, the amyloid nucleation score was 3.33 ± 0.077. In the case of RFESHSL, the amyloid nucleation score is reported as “inactive”. In the case of LDLCSRL, the amyloid nucleation score is reported as “inactive”. For WAGESLS, the amyloid nucleation score was “inactive”. FLNSCQNMQVPSGKFNSSKV gave an amyloid nucleation score of -0.122 ± 0.82. With ISCPLYQGMGHLIH the amyloid nucleation score was “inactive”. With CIRLRKANINRKDQKRGCMV the amyloid nucleation score was “inactive”. Work on VINRST yielded an amyloid nucleation score of 0.979 ± 0.11. Work on SVSASRSEVTRE yielded an amyloid nucleation score of -0.146 ± 0.64. In the case of YANFVRYNRLVKDRAVRSPK, the amyloid nucleation score is reported as “inactive”. In the case of ILKGL, the amyloid nucleation score is reported as “inactive”. For NFSVTYEFFGQSI, the amyloid nucleation score was 0.292 ± 0.32. Substance SVYSITSCMHGVAQSEVMFD has an amyloid nucleation score of 1.1 ± 0.16. For SNHITRFQLESQTIPIISFV, the amyloid nucleation score was “inactive”. With LTLSYKQERTTARGKPVYLR the amyloid nucleation score was “inactive”. With VCLWTVDLRIVTEGLGSHRG the amyloid nucleation score was “inactive”. In the case of GLSVVYSNRYNTWVRDLKDW, the amyloid nucleation score is reported as 0.376 ± 0.22. With LYYKSLGRCRNYLYCSH the amyloid nucleation score was 0.596 ± 0.12. With KQLDDPRQICIFYPT the amyloid nucleation score was “inactive”. For MCTTRGYMF, the amyloid nucleation score was “inactive”. In the case of ATLRAFATVYFHLVTHMFNF, the amyloid nucleation score is reported as “inactive”. In the case of STPSTQDFVKQSLEARVLSS, the amyloid nucleation score is reported as “inactive”. For FILSVCYARRDLTLKRTPSR, the amyloid nucleation score was “inactive”. With CMGMCELFNTWCYEGKTPIS the amyloid nucleation score was “inactive”. With VEALILSVRKCVFGLPVPAL the amyloid nucleation score was “inactive”. For KYEVCSYFNLCGEGKYRTVV, the amyloid nucleation score was “inactive”. In the case of SCSIIYRPPSIWRYSKRTSL, the amyloid nucleation score is reported as “inactive”. In the case of AYMRHFF, the amyloid nucleation score is reported as “inactive”. In the case of WAYRCTR, the amyloid nucleation score is reported as “inactive”. With YLFSSMLVILTCFRT the amyloid nucleation score was “inactive”. In the case of LLYSLWCEMMYPSKGARM, the amyloid nucleation score is reported as “inactive”. In the case of FADYFASSIFWYRCASHLGW, the amyloid nucleation score is reported as “inactive”. For SLVSGLRCVWLMFVSNGHQK, the amyloid nucleation score was “inactive”. In the case of RHYKLGGSGTCDVSYGSCYD, the amyloid nucleation score is reported as “inactive”. In the case of IMPPEFVFIFHRMNGHYLGF, the amyloid nucleation score is reported as “inactive”. With PNCGFVCMKMCATTDLFVCV the amyloid nucleation score was “inactive”. For QMRYLFACFYT, the amyloid nucleation score was “inactive”. With RNCYCWASVDI the amyloid nucleation score was “inactive”. FLTRIHFLCTCVRRNG showed an amyloid nucleation score of 1.37 ± 0.1. In the case of CELGDSGVIDDKIICVCYYL, the amyloid nucleation score is reported as “inactive”. In the case of KMKIT, the amyloid nucleation score is reported as “inactive”. For QKIPRDDEPMANQDRLSKIS, the amyloid nucleation score was “inactive”. In the case of IKSTTSKVPANMDSWLGTKM, the amyloid nucleation score is reported as “inactive”. WPIATTMSKGVCVRRVRGRD showed an amyloid nucleation score of -0.411 ± 0.69. For AVECSDRTTARWLNVTYAYF, the amyloid nucleation score was “inactive”. For LNILVTC, the amyloid nucleation score was “inactive”. In the case of NYGTLMYTVL, the amyloid nucleation score is reported as “inactive”. In the case of LLPKVLLP, the amyloid nucleation score is reported as “inactive”.

Source: the supplement of paper PMC12042874
